Reference: PMC10505919

Biological target: Chlamydomonas reinhardtii RabL2, wild type (Chlamydomonas reinhardtii)
Assay: ITC

For “Chlamydomonas reinhardtii CEP19 residues 1-208 (domain or fragment)”, the Kd was 12.7 µM.
